The results in this text go back to paper PMC3961693.

In this data set the target is IL-6 (human) (UniProt P05231). The note with it: 32 nt; six 2'-O-methyl; eight Bn-dU; one Pe-dU; one Nap-dU (position 12); Bn-dU at 7, 8, 14, 15, 22, 23, 27, 30 named in text; binding assay method and buffer not given in the ….
Sequence of IL-6 (human) (P05231 30-212): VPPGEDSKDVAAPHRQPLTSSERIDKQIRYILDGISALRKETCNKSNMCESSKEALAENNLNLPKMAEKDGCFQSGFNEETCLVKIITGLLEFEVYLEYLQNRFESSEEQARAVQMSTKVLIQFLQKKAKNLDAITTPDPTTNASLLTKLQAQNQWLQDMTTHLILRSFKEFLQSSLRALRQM

Turning to “GGCAGGUUUGGUAUUAACACGUUAAGUCGUGG [SL1025]”, the Kd (usually a measure of binding affinity in units of concentration) was 0.2 nM.
